Here are results for 36 sequences from the supplement of paper PMC10567573.

This data set can be described thus: protein stability index of a GFP-peptide fusion (GPS, HEK-293T) (PSI 1-6); higher = more stable. The following applies: c terminus: a fixed tail appended.

± gives the standard deviation.
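Further: 24-mer peptide tiles fused after GFP, lentivirally expressed, FACS-sorted into six equal bins by GFP/DsRed ratio, decoded by Illumina sequencing, PSI is the read-weighted mean bin number.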

ALLKFHTLDSYEDKQKLKRTEIIS [YJU2B] registered a protein stability index (treatment: DMSO) of 2.53 ± 0.3 and a protein stability index (treatment: MLN4924 1 uM, 8 h) of 2.53 ± 0.3.
For ALMRMLDNLGYRTGYPYRYPALRE [ADD1], the protein stability index by setting is: (treatment: DMSO) 2.79 ± 0.4; (treatment: MLN4924 1 uM, 8 h) 2.65 ± 0.59.
For ALQAPHSPSKTDGKELAGTMDGEG [PBXIP1] the same measures were 5.25 ± 0.25 and 5.34 ± 0.084.
With ALSGVGGIRLPNGKLKCDICGIIC [IKZF1], the protein stability index by setting is: (treatment: DMSO) 1.96 ± 0.26; (treatment: MLN4924 1 uM, 8 h) 2.1 ± 0.34.
For ALSPSATAKRINRTSLSSGATVRS [CDC14A] the same measures were 4.1 ± 0.11 and 4.16 ± 0.11.
The like results for ALVVALWGPLQDSLEHTLRVAIAH [TSPAN10] were, in that order, 2.89 ± 0.12 and 3.05 ± 0.15.
The like results for AMAERNRRDAEEWFHAKSAELNKE [KRT13] were, in that order, 5.03 ± 0.27 and 5.01 ± 0.29.
Turning to AMGHSQDRLTTFQENQARTHVLSK [LRRC45], the protein stability index is, setting by setting: (treatment: DMSO) 4.7 ± 0.21; (treatment: MLN4924 1 uM, 8 h) 4.7 ± 0.28.
For AMREAIQSYPSQDKPLPPPPPGSL [SOAT2] the same measures were 4.23 ± 0.12 and 4.04 ± 0.35.
For APDEKRSNVRWDHESVCKYYLCGF [LUC7L3] the same measures were 2.34 ± 0.28 and 2.41 ± 0.24.
APGPSPADKKRSGKKKISKADIGA [WAS]: the protein stability index is, setting by setting: (treatment: DMSO) 5.02 ± 0.23; (treatment: MLN4924 1 uM, 8 h) 4.86 ± 0.17.
The like results for APGRPGHPSGHWATCRLCGEQVGR [ZBED3] were, in that order, 2.331 ± 0.015 and 2.81 ± 0.41.
For APRFNQQLYTAYILENRPPGSLLC [PCDHGC5] the same measures were 2.1 ± 0.2 and 2.07 ± 0.28.
For AQAAAAESDSRKVAEETPDGAPAL [PRKX] the same measures were 5.38 ± 0.092 and 5.55 ± 0.12.
With AQALRQELERQRRLLGSVQQDLER [PBXIP1], the protein stability index stood at 4.08 ± 0.091 (treatment: DMSO) and 4.23 ± 0.12 (treatment: MLN4924 1 uM, 8 h).
For AQEDSLNKLALQYGCKVADIKKVN [LYSMD4] the same measures were 3.41 ± 0.14 and 3.71 ± 0.15.
On to AQGPNKPGYLVGRNNANGVDLNRN [CPN1], for which the protein stability index worked out at 4.33 ± 0.11 (treatment: DMSO) and 4.35 ± 0.16 (treatment: MLN4924 1 uM, 8 h).
ARAEAEQMAKKAEAFQLYQEAAQL [FLOT1]: the protein stability index was determined as 4.49 ± 0.17 (treatment: DMSO) and 4.52 ± 0.3 (treatment: MLN4924 1 uM, 8 h).
Take AREHFGTVKTHLTSLKTKFPAEQY [TSN]: the protein stability index came to 3.02 ± 0.085 (treatment: DMSO) and 3.08 ± 0.48 (treatment: MLN4924 1 uM, 8 h).
Take ARIRDEEAQRASFLQNAVLAYVQA [LRRC45]: the protein stability index is, setting by setting: (treatment: DMSO) 2.46 ± 0.2; (treatment: MLN4924 1 uM, 8 h) 2.49 ± 0.29.
Take ASSRASENQSPSSSNYFSPRESTD [ZBTB22]: the protein stability index reads like this: (treatment: DMSO) 5.3 ± 0.29; (treatment: MLN4924 1 uM, 8 h) 5.167 ± 0.043.
ASTKMCEQALGKGCGADSKKKRPP [PLK2] gave a protein stability index (treatment: DMSO) of 4.58 ± 0.11 and a protein stability index (treatment: MLN4924 1 uM, 8 h) of 4.76 ± 0.24.
The like results for ASWYSLSKGMQDFNYLHTNCFEIT [CPN1] were, in that order, 2.56 ± 0.58 and 2.23 ± 0.4.
The like results for AVCKATTHEVMGPKKKHLDYLIQA [SNAP91] were, in that order, 3.06 ± 0.29 and 2.96 ± 0.14.
With AVFIALLPILGHRDYKIQASRTWC [PTGFR], the protein stability index stood at 2.95 ± 0.64 (treatment: DMSO) and 2.81 ± 1.1 (treatment: MLN4924 1 uM, 8 h).
Take AWEDSHGSQDGHFVLSCSYDGLDC [SCNN1D]: the protein stability index reads like this: (treatment: DMSO) 3.73 ± 0.17; (treatment: MLN4924 1 uM, 8 h) 3.59 ± 0.19.
On to AWHCSESGQRLGGYRTSAVASGLQ [WDFY2], for which the protein stability index reads like this: (treatment: DMSO) 2.84 ± 0.14; (treatment: MLN4924 1 uM, 8 h) 3.1 ± 0.16.
The like results for AWKELDRNYLNYGEEGAPGKWQQQ [CHGB] were, in that order, 3.47 ± 0.43 and 3.75 ± 0.67.
For AYDFHGSWEKVTGHNSPLYKRQEE [CHIT1] the same measures were 4.33 ± 0.37 and 4.14 ± 0.45.
As for AYVAEREDELSLVKGSRVTVMEKC [NCK2], the protein stability index runs as follows: (treatment: DMSO) 4.31 ± 0.31; (treatment: MLN4924 1 uM, 8 h) 4.48 ± 0.19.
Take CAAVLPGKPGDRNCPEFPPPDRTL [RSPH3]: the protein stability index by setting is: (treatment: DMSO) 4.16 ± 0.42; (treatment: MLN4924 1 uM, 8 h) 3.76 ± 0.16.
The like results for CAGPGFTHNIAHGSLGFEPVYVSC [SPAG8] were, in that order, 2.48 ± 0.75 and 2.49 ± 0.64.
For CAMEDHNCEQLCVNVPGSFVCQCY [MATN2], the protein stability index reads like this: (treatment: DMSO) 2.5 ± 0.35; (treatment: MLN4924 1 uM, 8 h) 2.48 ± 0.39.
For the sequence CATVGNRGFVFGGRYRDARMNDLH [KLHDC2], the protein stability index (treatment: DMSO) came out at 2.19 ± 0.36 and the protein stability index (treatment: MLN4924 1 uM, 8 h) is 2.05 ± 0.19.
For CCEFLKRQLDPSNCLGIRAFADTH [KLHL20], the protein stability index by setting is: (treatment: DMSO) 2.62 ± 0.69; (treatment: MLN4924 1 uM, 8 h) 2.42 ± 0.48.
For CDDGGDGRGAVVPGAGLRRPTYTP [ZBTB22] the same measures were 4.35 ± 0.23 and 4.25 ± 0.26.
